Read-outs that look alike come from different tables or passages of the source. One block for each molecule: values may come before it.
How the values were obtained:
CCR3 (Homo sapiens) [1] = molecular target: CCR3 (Homo sapiens) (UniProt P51677); settings: cited from earlier work
CCR3 (Homo sapiens) [2] = molecular target: CCR3 (Homo sapiens) (UniProt P51677); settings: cited from earlier work; remark: listed apart in the source
CCR3 = molecular target: T1, CCR3 (Homo sapiens, UniProt P51677); test: QCM
T1 chain: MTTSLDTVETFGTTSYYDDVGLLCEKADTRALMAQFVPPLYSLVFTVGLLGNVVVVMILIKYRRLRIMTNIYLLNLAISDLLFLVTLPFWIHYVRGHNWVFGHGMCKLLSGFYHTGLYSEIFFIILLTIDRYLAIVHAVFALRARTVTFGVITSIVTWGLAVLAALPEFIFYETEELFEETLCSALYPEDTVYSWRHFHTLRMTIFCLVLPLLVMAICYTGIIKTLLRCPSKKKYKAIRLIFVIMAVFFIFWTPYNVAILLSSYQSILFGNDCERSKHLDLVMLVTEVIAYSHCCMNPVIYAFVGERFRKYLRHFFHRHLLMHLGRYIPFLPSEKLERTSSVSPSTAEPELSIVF

Molecule: CCL24 (from UniProt O00175)
Kd (CCR3 (Homo sapiens) [1]): 300 nM

Molecule: CCL11 (from UniProt P51671)
Kd (CCR3 (Homo sapiens) [2]): 370 nM

Kd (CCR3): 120 nM
B1: CCL8 (protein)
chain: QPDSVSIPITCCFNVINRKIPIQRLESYTRITNIQCPKEAVIFKTKRGKEVCADPKERWVRDSMKHLDQIFQNLKP
